How the values were obtained:
[1] = EDL eccentric contraction protocol; conditions: glycan lost; control: WT mice
[2] = EDL isometric tetanic and specific force in vitro; conditions: glycan lost; control: WT mice
[3] = EDL CSA from mass and fibre length; conditions: glycan lost; control: WT mice
[4] = H&E and immunofluorescence of skeletal muscle; conditions: glycan lost; control: WT mice
[5] = homozygous birth rate from heterozygous crosses; conditions: glycan lost; control: expected Mendelian ratio
[6] = forelimb grip strength test; conditions: glycan lost; control: WT mice
[7] = glycan lost; control: WT mice
[8] = forelimb grip strength, AAV rescue of DAG1 KO; conditions: glycan lost; control: AAV WT DAG1

B1: dystroglycan (mDag1): T315A/T317A (protein)
parent chain: MSVDNWLLHPLWGQTFLLLLSVAVAQAHWPSEPSEAVRDWKNQLEASMHSVLSDFQEAVPTVVGIPDGTAVVGRSFRVSIPTDLIASSGEIIKVSAAGKEALPSWLHWDPHSHILEGLPLDTDKGVHYISVSAARLGANGSHVPQTSSVFSIEVYPEDHNEPQSVRAASSDPGEVVPSACAADEPVTVLTVILDADLTKMTPKQRIDLLNRMQSFSEVELHNMKLVPVVNNRLFDMSAFMAGPGNAKKVVENGALLSWKLGCSLNQNSVPDIRGVETPAREGAMSAQLGYPVVGWHIANKKPTLPKRLRRQIHATPTPVTAIGPPTTAIQEPPSRIVPTPTSPAIAPPTETMAPPVRDPVPGKPTVTIRTRGAIIQTPTLGPIQPTRVSEAGTTVPGQIRPTLTIPGYVEPTAVITPPTTTTKKPRVSTPKPATPSTDSSTTTTRRPTKKPRTPRPVPRVTTKAPITRLETASPPTRIRTTTSGVPRGGEPNQRPELKNHIDRVDAWVGTYFEVKIPSDTFYDNEDTTTDKLKLTLKLREQQLVGEKSWVQFNSNSQLMYGLPDSSHVGKHEYFMHATDKGGLSAVDAFEIHVHKRPQGDKAPARFKARLAGDPAPVVNDIHKKIALVKKLAFAFGDRNCSSITLQNITRGSIVVEWTNNTLPLEPCPKEQIIGLSRRIADENGKPRPAFSNALEPDFKALSIAVTGSGSCRHLQFIPVAPPSPGSSAAPATEVPDRDPEKSSEDDVYLHTVIPAVVVAAILLIAGIIAMICYRKKRKGKLTLEDQATFIKKGVPIIFADELDDSKPPPSSSMPLILQEEKAPLPPPEYPNQSMPETTPLNQDTVGEYTPLRDEDPNAPPYQPPPPFTAPMEGKGSRPKNMTPYRSPPPYVPP
With B1 the “other: susceptibility to contraction-induced injury” value (“other: susceptibility” below) [1] was “no change”, the “other: muscle contractile force” value [2] was “no change” and the “other: muscle cross-sectional area” value [3] was “changes”. The “other: skeletal muscle histopathology” value [4] was “no change” and the other: embryonic viability, other: homozygous birth rate [5] was 10%.

B2: dystroglycan (mDag1): 4X mut. (Pax7-Cre or AAV-CMV-Cre) (protein)
parent chain: B1 parent chain
With B2 the “other: susceptibility” value [1] was “increases”, the “other: muscle contractile force” value [2] was “decreases” and the “other: grip strength” value [6] was “decreases”.

B3: dystroglycan (mDag1): Pax7-Cre 4X mutant (protein)
parent chain: B1 parent chain
With B3 the “other: neuromuscular junction integrity” value [7] was “decreases”.

B4: dystroglycan (mDag1): 4X mut. (floxed WT allele removed by Pax7-Cre or AAV-CMV-Cre) (protein)
parent chain: B1 parent chain
In the case of B4, the “other: skeletal muscle histopathology” value [4] is reported as “increases”.

B5: dystroglycan (mDag1): T377A/T379A (protein)
parent chain: B1 parent chain
For B5, the “other: susceptibility” value [1] was “no change”, the “other: muscle contractile force” value [2] was “no change” and the “other: muscle cross-sectional area” value [3] was “no change”. For the same protein, the “other: skeletal muscle histopathology” value [4] was “no change” and the other: embryonic viability, other: homozygous birth rate [5] was 22%.

B6: dystroglycan (mDag1): AAV 4X mutant DG (protein)
parent chain: B1 parent chain
For B6, the “other: rescue of grip strength” value [8] was “abolishes”.

B7: dystroglycan (mDag1): 4X mut. (protein)
parent chain: B1 parent chain
In the case of B7, the “other: embryonic viability, other: homozygous birth rate” value [5] is reported as “abolishes”.

B8: dystroglycan (mDag1): AAV T315A/T317A DAG1 (protein)
parent chain: B1 parent chain
In the case of B8, the “other: rescue of grip strength” value [8] is reported as “no change”.

Reference: doi:10.1101/2023.12.20.572361
